Assay results taken from article PMC7772773 (2020).

B1: myc-HTR6 [mouse] / EGFP-RABL2B [human] (parent complex)
chain 1: MVPEPGPVNSSTPAWGPGPPPAPGGSGWVAAALCVVIVLTAAANSLLIALICTQPALRNTSNFFLVSLFTSDLMVGLVVMPPAMLNALYGRWVLARGLCLLWTAFDVMCCSASILNLCLISLDRYLLILSPLRYKLRMTAPRALALILGAWSLAALASFLPLLLGWHELGKARTSAPGQCRLLASLPYVLVASGVTFFLPSGAICFTYCRILLAARKQAVQVASLTTGTATAGQALETLQVPRTPRPGMESADSRRLTTKHSRKALKASLTLGILLSMFFVTWLPFFVASIAQAVCDCISPGLFDVLTWLGYCNSTMNPIIYPLFMRDFKRALGRFVPCVHCPPEHRASPASPSMWTSHSGARPGLSLQQVLPLPLPPNSDSDSASGGTSGLQLTAQLLLPGEATRDPPPPTRAPTVVNFFVTDSVEPEIRQHPLGSPMN
chain 2: MAEDKTKPSELDQGKYDADDNVKIICLGDSAVGKSKLMERFLMDGFQPQQLSTYALTLYKHTATVDGRTILVDFWDTAGQERFQSMHASYYHKAHACIMVFDVQRKVTYRNLSTWYTELREFRPEIPCIVVANKIDDINVTQKSFNFAKKFSLPLYFVSAADGTNVVKLFNDAIRLAVSYKQNSQDFMDEIFQELENFSLEQEEEDVPDQEQSSSIETPSEEAASPHS

Variants of: B1
Assay: co-immunoprecipitation (IP anti-EGFP, Western blot anti-Myc), IP/input band quantitation; lysates from HEK293T cells; Input is 2.5% of lysate used for IP; parent: 100

percent of parent [%]	Variant
103	chain 1 MVPEPGPVNSSTPAWGPGPPPAPGGSGWVAAALCVVIVLTAAANSLLIALICTQPALRNTSNFFLVSLFTSDLMVGLVVMPPAMLNALYGRWVLARGLCLLWTAFDVMCCSASILNLCLISLDRYLLILSPLRYKLRMTAPRALALILGAWSLAALASFLPLLLGWHELGKARTSAPGQCRLLASLPYVLVASGVTFFLPSGAICFTYCRILLAARKQAVQVASLTTGTATAGQALETLQVPRTPRPGMESADSRRLTTKHSRKALKASLTLGILLSMFFVTWLPFFVASIAQAVCDCISPGLFDVLTWLGYCNSTMNPIIYPLFMRDFKRALGRFVPCVHCPPEHRASPASPSMWTSHSGARPGLSLQQVLPLPLPPNSDSDSASGGTSGLQLTAQAAAPGEATRDPPPPTRAPTVVNFFVTDSVEPEIRQHPLGSPMN [chain 1 L398A, chain 1 L399A, chain 1 L400A]

Variants of: B1
Assay: as above
Remark: another data set of the same source

percent of parent [%]	Variant
121	chain 1 MVPEPGPVNSSTPAWGPGPPPAPGGSGWVAAALCVVIVLTAAANSLLIALICTQPALRNTSNFFLVSLFTSDLMVGLVVMPPAMLNALYGRWVLARGLCLLWTAFDVMCCSASILNLCLISLDRYLLILSPLRYKLRMTAPRALALILGAWSLAALASFLPLLLGWHELGKARTSAPGQCRLLASLPYVLVASGVTFFLPSGAICFTYCRILLAARKQAVQVASLTTGTATAGQALETLQVPRTPRPGMESADSRRLTTKHSRKALKASLTLGILLSMFFVTWLPFFVASIAQAVCDCISPGLFDVLTWLGYCNSTMNPIIYPLFMRDFKRALGRFVPCVHCPPEHRASPASPSMWTSHSGARPGLSLQQVLPLPLPPNSDSDSASGGTSGLQLTAQAAAPGEATRDPPPPTRAPTVVNFFVTDSVEPEIRQHPLGSPMN [chain 1 L398A, chain 1 L399A, chain 1 L400A]
105	chain 1 MVPEPGPVNSSTPAWGPGPPPAPGGSGWVAAALCVVIVLTAAANSLLIALICTQPALRNTSNFFLVSLFTSDLMVGLVVMPPAMLNALYGRWVLARGLCLLWTAFDVMCCSASILNLCLISLDRYLLILSPLRYKLRMTAPRALALILGAWSLAALASFLPLLLGWHELGKARTSAPGQCRLLASLPYVLVASGVTFFLPSGAICFTYCRILLAAAAAAVQVASLTTGTATAGQALETLQVPRTPRPGMESADSRRLTTKHSRKALKASLTLGILLSMFFVTWLPFFVASIAQAVCDCISPGLFDVLTWLGYCNSTMNPIIYPLFMRDFKRALGRFVPCVHCPPEHRASPASPSMWTSHSGARPGLSLQQVLPLPLPPNSDSDSASGGTSGLQLTAQAAAPGEATRDPPPPTRAPTVVNFFVTDSVEPEIRQHPLGSPMN [chain 1 R216A, chain 1 K217A, chain 1 Q218A, chain 1 L398A, chain 1 L399A, chain 1 L400A]
84	chain 1 MVPEPGPVNSSTPAWGPGPPPAPGGSGWVAAALCVVIVLTAAANSLLIALICTQPALRNTSNFFLVSLFTSDLMVGLVVMPPAMLNALYGRWVLARGLCLLWTAFDVMCCSASILNLCLISLDRYLLILSPLRYKLRMTAPRALALILGAWSLAALASFLPLLLGWHELGKARTSAPGQCRLLASLPYVLVASGVTFFLPSGAICFTYCRILLAAAAAAVQVASLTTGTATAGQALETLQVPRTPRPGMESADSRRLTTKHSRKALKASLTLGILLSMFFVTWLPFFVASIAQAVCDCISPGLFDVLTWLGYCNSTMNPIIYPLFMRDFKRALGRFVPCVHCPPEHRASPASPSMWTSHSGARPGLSLQQVLPLPLPPNSDSDSASGGTSGLQLTAQLLLPGEATRDPPPPTRAPTVVNFFVTDSVEPEIRQHPLGSPMN [chain 1 R216A, chain 1 K217A, chain 1 Q218A]
